According to patent US10112983B2, “Neuregulin variants and methods of screening and using thereof” (Zensun (Shanghai) Science & Technology, Co., Ltd., priority 2005, dated 2018):
Numbering of substitutions follows the chain as printed. Numbers in names are those of the source. One block for each molecule: values may come before it.

How the values were obtained:
[1] = target: T1, ErbB2&ErbB3 co-expressing COS 7 cells (Homo sapiens, UniProt P21860); assay: Receptor binding affinity assay (competition of bound radiolabeled ligand) on COS7 cells; conditions: for receptor binding affinity compared with neuregulin: ErbB2&ErbB3 co-expressing cells; for EC50: Table 7 (footnote defines KD), read-out: EC50, COS7 cells (ErbB2&ErbB3 co-expression)
T1 construct: expressed in transfected cells; host or cells: COS 7
Method: (§1) To study the receptor binding affinity of neuregulin and its mutations, ErbB2&ErbB3 or ErB2&ErB4 co-expressing COS 7 are used. The cells are grown to 80% confluence. In the afternoon, after the cells reach 80% confluence, the media is changed to serum free media.

[2] = target: T2, ErbB2&ErbB4 co-expressing COS 7 cells (Homo sapiens, UniProt Q15303); assay: as above; conditions: for receptor binding affinity compared with neuregulin: ErbB2&ErbB4 co-expressing cells; for EC50: Table 7 (footnote defines KD), read-out: EC50, COS7 cells (ErbB2&ErbB4 co-expression)
T2 construct: expressed in transfected cells; host or cells: COS 7
Method: as §1

[3] = target: T1, ErbB2&ErbB3 co-expressing COS 7 cells; assay: Signal transduction: AKT phosphorylation by western blot; format: cell-based; conditions: 10 minutes
Method: (§2) Similarly, to study the signal transduction ability of neuregulin and its mutations, ErbB2&ErbB3 or ErbB2&ErbB4 co-expressing COS 7 cells are used. The cells are grown to 80% confluence. In the afternoon, after the cells reach 80% confluence, the media is changed to serum free media. Then after 24 hours, different amounts of neuregulin or neuregulin variants are added into separate wells containing the cells. After 10 minutes, loading buffer is added to lyse the cells. The sample is then harvested and loaded into a separate well of gel for electrophoresis and western blot analysis.

[4] = target: T2, ErbB2&ErbB4 co-expressing COS 7 cells; assay: as above; format: cell-based; conditions: 10 minutes
Method: as §2

B3: NRG: the 177-237 amino acids fragment of neuregulin1β2 (SEQ ID NO:1) (protein, listed as Homo sapiens)
chain: SHLVKCAEKEKTFCVNGGECFMVKDLSNPSRYLCKCPNEFTGDRCQNYVMASFYKAEELYQ
EC50 [1]: 1410 nM
EC50 [2]: 282 nM

B4: 8A47A: neuregulin double mutant, simultaneous alanine substitutions for the 8th and 47th amino acids of the neuregulin fragment (protein)
chain: B3 chain with E8A, N47A
AKT phosphorylation compared with neuregulin [3]: nearly same AKT phosphorylation as neuregulin
AKT phosphorylation compared with neuregulin [4]: much more AKT phosphorylation than neuregulin

Continued, in another order:

EC50 [1]: 1150 nM
receptor binding affinity compared with neuregulin [2]: much lower
EC50 [2]: 1060 nM
AKT phosphorylation compared with neuregulin [3]: less AKT phosphorylation than neuregulin
AKT phosphorylation compared with neuregulin [4]: more AKT phosphorylation than neuregulin
B1: L3A: neuregulin fragment (177-237) with alanine substitution for the 3rd amino acid (protein)
chain: B3 chain with L3A
receptor binding affinity compared with neuregulin [1]: nearly the same receptor binding affinity

receptor binding affinity compared with neuregulin [2]: much higher
AKT phosphorylation compared with neuregulin [3]: less AKT phosphorylation than neuregulin
AKT phosphorylation compared with neuregulin [4]: more AKT phosphorylation than neuregulin
B2: D43A: neuregulin fragment (177-237) with alanine substitution for the 43rd amino acid (protein)
chain: B3 chain with D43A
receptor binding affinity compared with neuregulin [1]: nearly the same receptor binding affinity
